# From patent US11135246B2, “Peptides and combination of peptides for use in immunotherapy against leukemias and other cancers” (Immatics Biotechnologies GmbH, priority 2017, dated 2021)
# Target: HLA-B*44:02 (Homo sapiens, UniProt P01889, A223V/A65T/A93T/A95T/D201E/D98Y/E176V/E187L/E204Q/E69K/G107R/H137Y/K202T/L105A/L119I/N104T/N87E/Q56L/Q94N/R106L/R155S/R180D/S101N/S121R/S35A/S48T/T118I/V36M/W191S/Y140D/Y91S)
# Test: MHC binding assay, UV-ligand exchange with β2m ELISA, HLA-B*44:02
# Details: binding to HLA-B*44:02, UV-ligand exchange
# Excerpt: Candidate peptides for T cell based therapies according to the present invention were further tested for their MHC binding capacity (affinity). The individual peptide-MHC complexes were produced by UV-ligand exchange, where a UV-sensitive peptide is cleaved upon UV-irradiation, and exchanged with the peptide of interest as analyzed. Only peptide candidates that can effectively bind and stabilize the peptide-receptive MHC molecules prevent dissociation of the MHC complexes. To determine the yield of the exchange reaction, an ELISA was performed based on the detection of the light chain (β2m) of stabilized MHC complexes. The assay was performed as generally described in Rodenko et al. (Rodenko et al., 2006).
# 96 well MAXISorp plates (NUNC) were coated over night with 2 ug/ml streptavidin in PBS at room temperature, washed 4× and blocked for 1 h at 37° C. in 2% BSA containing blocking buffer. Refolded HLA-A*02:01/MLA-001 monomers served as standards, covering the range of 15-500 ng/ml. Peptide-MHC monomers of the UV-exchange reaction were diluted 100-fold in blocking buffer. Samples were incubated for 1 h at 37° C., washed four times, incubated with 2 ug/ml HRP conjugated anti-β2m for 1 h at 37° C., washed again and detected with TMB solution that is stopped with […]. Absorption was measured at 450 nm. Candidate peptides that show a high exchange yield (preferably higher than 50%, most preferred higher than 75%) are generally preferred for a generation and production of antibodies or fragments thereof, and/or T cell receptors or fragments thereof, as they show sufficient avidity to the MHC molecules and prevent dissociation of the MHC complexes.
row,Substance,"Peptide exchange (MHC class I binding score, peptide exchange yield)"
1,270 (AESEDLAVHL; listed as Homo sapiens) [compound 270],“++” (>20% = ++)
2,122 (KELPGVKKY; listed as Homo sapiens) [compound 122],“++” (>20% = ++)
3,177 (QENMQIQSF; listed as Homo sapiens) [compound 177],“+++” (>50 = +++)
4,129 (GEGAYGKVF; listed as Homo sapiens) [compound 129],“++++” (>75% = ++++)
5,140 (EYDLKWEF; listed as Homo sapiens) [compound 140],“++” (>20% = ++)
6,187 (SDAQRPSSF; listed as Homo sapiens) [compound 187],“+” (>10% = +)
7,130 (EEEHGKGREY; listed as Homo sapiens) [compound 130],“++” (>20% = ++)
8,181 (GEIKEPLEI; listed as Homo sapiens) [compound 181],“++” (>20% = ++)
9,259 (EENTLVQNY; listed as Homo sapiens) [compound 259],“++” (>20% = ++)
10,172 (VEDGLFHEF; listed as Homo sapiens) [compound 172],“+++” (>50 = +++)
11,143 (YEYDLKWEF; listed as Homo sapiens) [compound 143],“+++” (>50 = +++)
12,138 (SQAPAARAF; listed as Homo sapiens) [compound 138],“++” (>20% = ++)
13,182 (AQNLSIIQY; listed as Homo sapiens) [compound 182],“++” (>20% = ++)
14,272 (KEFELRSSW; listed as Homo sapiens) [compound 272],“+++” (>50 = +++)
15,275 (TENPLTKLL; listed as Homo sapiens) [compound 275],“++++” (>75% = ++++)
16,271 (AESEDLAVHLY; listed as Homo sapiens) [compound 271],“++” (>20% = ++)
17,169 (EENGEVKEL; listed as Homo sapiens) [compound 169],“++” (>20% = ++)
18,144 (TEGKRYFTW; listed as Homo sapiens) [compound 144],“+++” (>50 = +++)
19,173 (KEYDFGTQL; listed as Homo sapiens) [compound 173],“++” (>20% = ++)
20,186 (NEQKIVRF; listed as Homo sapiens) [compound 186],“+” (>10% = +)
21,167 (KEIGAAVQAL; listed as Homo sapiens) [compound 167],“+++” (>50 = +++)

row,Substance,"Peptide exchange (MHC class I binding score, peptide exchange yield)"
1,166 (NEVLASKY; listed as Homo sapiens) [compound 166],“+” (>10% = +)
2,261 (NEIEHIPVW; listed as Homo sapiens) [compound 261],“+++” (>50 = +++)
3,132 (GELPAVRDL; listed as Homo sapiens) [compound 132],“++” (>20% = ++)
4,126 (EENKPGIVY; listed as Homo sapiens) [compound 126],“++” (>20% = ++)
5,178 (REYEHYWTEL; listed as Homo sapiens) [compound 178],“+++” (>50 = +++)
6,174 (TDKSFPNAY; listed as Homo sapiens) [compound 174],“+” (>10% = +)
7,267 (KEKFPINGW; listed as Homo sapiens) [compound 267],“+++” (>50 = +++)
8,150 (EEVTDRSQL; listed as Homo sapiens) [compound 150],“++” (>20% = ++)
9,268 (NEDKGTKAW; listed as Homo sapiens) [compound 268],“++” (>20% = ++)
10,185 (SEGDNVESW; listed as Homo sapiens) [compound 185],“+++” (>50 = +++)
11,258 (EELFRDGVNW; listed as Homo sapiens) [compound 258],“+++” (>50 = +++)
12,160 (EEETILHFF; listed as Homo sapiens) [compound 160],“++” (>20% = ++)
13,162 (DEAQARAAF; listed as Homo sapiens) [compound 162],“++” (>20% = ++)
14,147 (KEVPRSYEL; listed as Homo sapiens) [compound 147],“++” (>20% = ++)
15,155 (NEFPVIVRL; listed as Homo sapiens) [compound 155],“+++” (>50 = +++)
16,134 (SEYADTHYF; listed as Homo sapiens) [compound 134],“+++” (>50 = +++)
17,131 (EEFETIERF; listed as Homo sapiens) [compound 131],“++” (>20% = ++)
18,137 (GELGGSVTI; listed as Homo sapiens) [compound 137],“+++” (>50 = +++)
19,158 (GENEDNRIGL; listed as Homo sapiens) [compound 158],“++” (>20% = ++)
20,142 (TEIFKEHNF; listed as Homo sapiens) [compound 142],“++” (>20% = ++)
21,266 (VDASIFKAW; listed as Homo sapiens) [compound 266],“++” (>20% = ++)

row,Substance,"Peptide exchange (MHC class I binding score, peptide exchange yield)"
1,170 (SENEQRRMF; listed as Homo sapiens) [compound 170],“+++” (>50 = +++)
2,125 (SESTFDRTF; listed as Homo sapiens) [compound 125],“+++” (>50 = +++)
3,179 (AEIKQTEEKY; listed as Homo sapiens) [compound 179],“++” (>20% = ++)
4,176 (AENAVSNLSF; listed as Homo sapiens) [compound 176],“++” (>20% = ++)
5,171 (SEDLAVHLY; listed as Homo sapiens) [compound 171],“++” (>20% = ++)
6,153 (KEFEQVPGHL; listed as Homo sapiens) [compound 153],“++” (>20% = ++)
7,260 (AEIGEGAYGKVF; listed as Homo sapiens) [compound 260],“+++” (>50 = +++)
8,148 (REYNEYENI; listed as Homo sapiens) [compound 148],“++” (>20% = ++)
9,154 (AEPGPVITW; listed as Homo sapiens) [compound 154],“+++” (>50 = +++)
10,145 (AEPLVGQRW; listed as Homo sapiens) [compound 145],“+++” (>50 = +++)
11,133 (AEHNFVAKA; listed as Homo sapiens) [compound 133],“+++” (>50 = +++)
12,263 (REAGFQVKAY; listed as Homo sapiens) [compound 263],“+++” (>50 = +++)
13,127 (TEYPVFVY; listed as Homo sapiens) [compound 127],“+” (>10% = +)
14,124 (SESLPKEAF; listed as Homo sapiens) [compound 124],“++” (>20% = ++)
15,128 (GENDRLNHTY; listed as Homo sapiens) [compound 128],“++” (>20% = ++)
16,175 (HEIDGKALFL; listed as Homo sapiens) [compound 175],“++” (>20% = ++)
17,141 (REYEYDLKWEF; listed as Homo sapiens) [compound 141],“+++” (>50 = +++)
18,161 (EEGDTLLHLF; listed as Homo sapiens) [compound 161],“+++” (>50 = +++)
19,151 (EVDASIFKAW; listed as Homo sapiens) [compound 151],“++” (>20% = ++)
